Measured values reported in the supplement of paper PMC12636428.

Test system: Saccharomyces cerevisiae
Test: transcriptional activation domain activity (GFP:mCherry ratio, weighted mean of sorted bins, harmonized to initial dataset scale) (arbitrary fluorescence ratio units); higher = stronger transcriptional activation
Details: beta-estradiol 1 µM; induction time 4 h
In short: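 The activation activity of each tile is the read-weighted mean of bin median fluorescence, averaged across its barcodes and mapped linearly onto the scale of the initial dataset. Tiles were fused to an estradiol-inducible synthetic transcription factor, barcoded, and integrated at URA3 in yeast diploids carrying a GFP reporter. Induction used 1 uM beta-estradiol in SC for 4 hours at 30 °C, after which cells were sorted into 8 GFP:mCherry bins, and any tile with fewer than 50 reads was dropped.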

Sequence	transcriptional activation domain activity
PAAEEVAAAPAHEEPALPKHEELEIEEADEPVHRAAPAERATAAPAAAPVKAP	29700
PAAGGFGATSTPAPAAGGFGGFGATAAAAKPAVGGFGGLGGGASAAPATTLTS	23300
PAANNPTGTLSSDELTFTHDLIEKVFNCNDKLSDNYNTQILSNTEHPLLTSYK	73500
PAAQFLTEKRDRGGGGKGGEEGGGGSGKKVYKGAAMPNRYGIRPGHRWDGVDR	28200
PAASGSDDDEPIAAKKPSAPRKRKAKVESDSDDEKPIAKKLAAKKPRASKVKA	14100
PAASTTHATAAPPAAPSPPSQTTPSAPATAASAPRTSPRPCASSCTSSATSRS	31600
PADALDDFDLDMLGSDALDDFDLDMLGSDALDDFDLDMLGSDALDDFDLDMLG	152000
PADDPQPAPATPKRRGRPPKNPKPAEEPKPAEEDPQPVPATTPKKRGRPPKAS	26100
PAEAPAAEPAAATEAPAETKDEKKEEKKEEKKEKKDEKKTEKSAKVGRRLSAR	45100
PAEATVAITNVLYVVQKYYPGSHNLITLLLAIRCVMFTVFRFVAAPLCVTHAL	46700
PAEGAEDAGEVKKKHRKRRRKRRGDAKDAAAEGGDEPENEDGEVGEGDNAAVS	9150
PAEGEAAAAPAAEESAAPAARTGSSSSSSSNEEKKKKAAKSKSRSVSRGKRTS	23200
PAEVKLIWTRPVTLTKVIFVFVRYSIALCQVTAVYVLLIVRVYTLWDHRRAIL	70300
PAGDNKAPRKEGARANNRPRDNDAPRGPRYDRTPRDGDAASRAPRGARAPRGA	41700
PAHSLLELIQLMKRKAFVCWYLFTIVIVLLLLLWIFLSVNYFHCIKPINFNTD	34800
PAHVIFDVVIVCAGYFAREAFEEVVRMTTMCAVGPVFVVQALVRAGKVCTGIG	76300
PANSSFVYVPMGWTLEVRNDGNPAIYAALLVRALLSRRVCRVGLLKHNTILVH	51300
PAPAAAAASSSTATEKASGEQQPRESKRNPRHRNKRGRDNKDKDGKEGAGGKS	28100
PAPAAERREFEEELEARAPGGRGGFRGPRGGPRGPAPAPAPPAAERREFIEDL	28600
PAPAAKKEEKPAAATAEAPKEEAAAAVAAEEPKETKEEEKKEEAKEEKKEEAK	15800
PAPAPAPAPRKGRSKKPVASPSASPVLAPAPAPAIALRKGRSKKPVASPSASP	36100

Sequence	transcriptional activation domain activity
PAPAPEAPKEEEAAAEPAAEPPKTEEAPAAEPVKEPEQAEPTPAADAPADAPA	18900
PAPAPMGRRTFAVDVDESAHSLAKKVKAARVRGYNYIIVVGERDAERGTAAVQ	44800
PAPKKAAAPAKKDALKAKKEESSSSSSDSEDEKPAPKKAAASAAKKVVAKAQK	21000
PAPKKAPAKPRGRKPKPTADSDNQEVEAEAKPKSARGKKRTVAEKAAEEGAQP	< 6570
PAPKKRAPRKRKANAATVEGEAEDNEAEGAAAAAPPKKRARTRKAAAAAAEPS	41700
PAPKRRGRPSKERVEEQQASDDETAQSSPKRRGRLPRQAASASASASAPVAAK	44100
PAPSAAPAPAKEEDDDDEKEEAGGKADAKKKKKKKGKKDDEPAPAAAPAAAGK	29400
PAPTGDSPKKEKKRKRESAVAEDAPAAAEAEEADEPEKKKKKKKKHAEAEGAN	23700
PARAHGNRDDERGGGVRGGVPADARATLARRVQPHPLARARARVCAGAAVRGE	48600
PARGNKDVFFIMFHPSEEFLFNILSLWLRACNPNCRIFHSHEAGSWKQYQKET	45000
PASNGHAEPETKPEPEAAPEPVEEKAATPAPATPAQPSPAPTPAPAAAAPSPA	10200
PASPPIDRMERLHIRRTSPSPQGNYDEIRIDRARRISSSPPRRYEEVRVRHVS	26700
PASRGYDRDRDYRRSPSPRERRERDRSRDRDYDRPRSPAVRATLSSSPAPAAL	22600
PATTSPAPRGLTASGQPRKKPGPKPKLKDPNAPEPEKKARKARKVVEAKDPAV	< 6570
PAVRVLPCNHGPGGDLCIICRTPLFQLTLFKYLMTKMCHVRTWLMFGILDLTF	47700
PAYEMCTYVWGFRGACLGLLWLIWFVVLYFVLRIRNIHSSFNERIESIIICFL	48800
PAYKLLVAAIWSLEIVDQAFIGHCVYYYTISNYMSPQVLLFGDVIWTLIIQLV	43000
PCKCHTKRKSSRKSKGGSCHRRANDEAAHVNGLGIADLDVLLGLNGRSSDVDM	44000
PCMLRLLIWIAFKLVPENSSIREPLNFLLDHPRRCYTLLFPSGPTWTLFAFLV	60500
PCPETSTPPPPPPKPTTAYPPPKSSEAPPPPPPKPTTAYPPPPKSSEAPPPPP	47900
PCSHTILNYGMTLSVSLVVVFRVSHMSFLSSSELSFLRGYHMMLASAFFLFVF	36600

Sequence	transcriptional activation domain activity
PDDHKLLKALVFFLWVFDGLHIALICHAFYLITVTNFGNVLALLTIPRTLPIA	58400
PDEDEVVENAEKPKRRRRAKPTEEEQNEEQQNEEDAVENAGKKKRGKRTKPTE	39900
PDELVKSASRLEIDDPSPVTADGAKKSKNQLKKEQKARQLQLQRSLGPASGAP	< 6570
PDEVASEASQPAEPAAASRAESPAAASVYEEAREPQEVQEERVASPVVAATPA	48300
PDFYPLFYSRLIPLSVISFLVYTALFFLVFWPQYLFLVIFHGWGAWPTAIILF	52600
PDGSAITGSAVTKRKQSKSRNGCITCKAKRLKCDETKPSCQQCAKRSVTCGGY	28100
PDHIHHHSNNMNNEDNDNNNGSNNKVSNDSKLDFVTDDLEYHLANTHPDDTND	47000
PDIKKRPRKKSRRASAEGSEIGTESGGSDDGRQESAQRRKVERKERAGSSKEV	47100
PDISAYDDERLKEGRLIAEFILNRTQYAPDETSKNDRVSDSEVPWMDFPSELN	37600
PDLSIYMVDAFVHVLITAGLRDSAAVLHERIMSEFLDRILLILRAAVRLNKII	62400
PDRLDGRCVPDLSFFSVGDFTPISLVFFLSFPLLLFFFSFFFFFFFFFFFFFF	37700
PDRPCYSAIVRISTSRLHFYECKLYAHAFFQGLRYFMYHWRWTTTLVLMSLFL	47200
PDVEQMVLHFYLQLCYEFFDRCPTLFHASLGLINPSTSCCCGLLFLLFFVFLY	72800
PDVLRKGAKFFCDETVLVKLQIVTLAAKLLVLSPNNLTLILLTKYVFGLARYD	63000
PDYLFSRLFVCAFISLFVSLSFLQLGNGLRDLQFRVFSIFWVSILPAIIMSQI	52200
PEAAPGEEVKEEAGEEQKPDRRDRRGRDRGGRGGRDRGRGRGGASRGGKRGDT	26700
PEALIQFNQVWVNHFKDPFTNIYYHQSPELSGSKYYELIYLRAFICLMFCFQF	55100
PEEEEQAEAGVDSSIVEIAPKRGRGRPRKSLPTEGTTAEAPAKRGRGRPKKVS	27600
PEEKKEKAAEGEATKKEGEVGKKKGKKGDKKKEASGEQAPAAAAPAEEKKAEQ	< 6570
